Assay results: patent US20220175814A1
Each block holds one substance with its values, some of them ahead of it.

What was measured:
PD-L1 on A431 cells [1] = biological target: PD-L1 on A431 cells (UniProt Q9NZQ7); assay: flow cytometry, A431 cells treated 5 h with 0.125 µg/ml PEI-PEG-EGF/polyIC, stained 40 min on ice
PD-L1 on A431 cells [2] = biological target: PD-L1 on A431 cells (UniProt Q9NZQ7); assay: flow cytometry, untreated control A431 cells, stained 40 min on ice
[3] = biological target: PD-L1 on RENCA HER2 cells (mouse) (UniProt Q9EP73); assay: flow cytometry, untreated RENCA HER2 cells stained with PE anti-mouse PD-L1 10F.9G2, 1 h
[4] = biological target: PD-L1 on RENCA HER2 cells (mouse) (UniProt Q9EP73); assay: flow cytometry, RENCA HER2 cells treated 24 h with 1 microgram/ml polyIC/PPHA, stained with PE anti-mouse PD-L1 10F.9G2, 1 h
[5] = biological target: PD-L1 on RENCA HER2 cells (mouse) (UniProt Q9EP73); assay: flow cytometry on RENCA HER2 cells, isotype control, 1 h
PD-L1 on A431 cells [6] = biological target: PD-L1 on A431 cells (UniProt Q9NZQ7); assay: flow cytometry on A431 cells, negative control

Chain of UniProt Q9EP73 (Q9EP73 19-290): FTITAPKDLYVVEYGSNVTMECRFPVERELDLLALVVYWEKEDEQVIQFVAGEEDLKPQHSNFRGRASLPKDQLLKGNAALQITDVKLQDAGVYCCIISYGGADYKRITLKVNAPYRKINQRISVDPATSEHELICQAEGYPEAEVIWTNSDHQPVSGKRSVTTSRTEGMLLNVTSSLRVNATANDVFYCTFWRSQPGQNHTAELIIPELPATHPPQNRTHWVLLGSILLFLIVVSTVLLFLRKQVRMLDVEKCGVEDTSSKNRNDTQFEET
Chain of UniProt Q9NZQ7 (Q9NZQ7 19-290 limits assumed): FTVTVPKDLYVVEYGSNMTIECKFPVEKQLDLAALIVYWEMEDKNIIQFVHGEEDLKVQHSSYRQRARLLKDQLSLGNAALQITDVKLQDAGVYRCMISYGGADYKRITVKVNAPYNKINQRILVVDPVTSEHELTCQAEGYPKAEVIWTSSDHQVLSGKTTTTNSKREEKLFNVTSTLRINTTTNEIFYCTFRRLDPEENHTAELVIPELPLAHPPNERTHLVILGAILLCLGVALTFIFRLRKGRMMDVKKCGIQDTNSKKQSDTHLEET

MFI (PD-L1 on A431 cells [1]): 751 | MFI (PD-L1 on A431 cells [2]): 431
Substance: PD-L1-PE labelled antibody (Biolegend, cat #393607)

median PE-A (Calculated raw values of medians using x-axis channel(s): PE-A) [3]: 163 | median PE-A (Calculated raw values of medians using x-axis channel(s): PE-A) [4]: 322
Substance: phycoerythrin (PE)-conjugated anti-mouse PD-L1 antibody CD274 (PD-L1, B7-H1) [10F.9G2] Tonbo cat #50-1243-U025

median PE-A (Calculated raw values of medians using x-axis channel(s): PE-A) [5]: 3.19
Substance: Isotype control (Example 6, RENCA HER2 staining) (antibody)

MFI (PD-L1 on A431 cells [6]): 13
Substance: Isotype control (Example 1, A431 staining) (antibody)
